Several values for one entry are separate records, joined by “and”; a condition that tells them apart may be missing. Equal entries are not always repeated.

The assay concerns the target CD45 antigen (leukocyte common antigen), human, on cells (human) (UniProt P08575). Description: cell-based or functional assay.

B1: chimeric anti-CD45RO/RB mAb "candidate mAb" (antibody, human IgG1, kappa, V domains shown)
VH: EVQLQQSGPELVKPGASVKMSCKASGYTFTNYIIHWVKQEPGQGLEWIGYFNPYNHGTKYNEKFKGRATLTADKSSNTAYMDLSSLTSEDSAIYYCARSGPYAWFDTWGQGTTVTVSS
VL: DILLTQSPAILSVSPGERVSFSCRASQNIGTSIQWYQQRTNGSPRLLIRSSSESISGIPSRFSGSGSGTDFTLSINSVESEDIADYYCQQSNTWPFTFGSGTKLEIKR
B1 yielded a % of Inhibition of primary MLR (responder #211 CD4, stimulator #219 CD3), 10 ug/ml mAb of 63.5%; a % of Inhibition of primary MLR (responder #220 CD4, stimulator #219 CD3 depl.), 10 ug/ml mAb of 63.1%; a % of Inhibition of primary MLR (responder #227 CD4, stimulator #220 CD3 depl.), 10 ug/ml mAb of 66%; a % of Inhibition of primary MLR (responder #229 CD4, stimulator #219 CD3 depl.), 10 ug/ml mAb of 50.8%. For the same molecule, the IC50 for the inhibition of primary MLR (cellular activity IC50) is 0.87 nM and 0.13 µg/ml.
